Test results from PMC10769878 (2024).

T1: YosL^SPβ (Bacillus subtilis phage SPβ, UniProt O31877 1-117)
T1 chain: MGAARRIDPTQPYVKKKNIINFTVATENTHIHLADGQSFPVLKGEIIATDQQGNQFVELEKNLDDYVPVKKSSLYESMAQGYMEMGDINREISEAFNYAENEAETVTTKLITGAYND

T2: YosL^phi3T (Bacillus subtilis phage phi3T)
T2 chain: T1 chain

T3: phi3T_93 (Bacillus subtilis phage phi3T)
T3 chain: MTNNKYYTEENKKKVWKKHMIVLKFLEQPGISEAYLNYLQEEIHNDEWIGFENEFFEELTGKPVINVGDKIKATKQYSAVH

B1: MazF (enzyme)
chain: MIVKRGDVYFADLSPVVGSEQGGVRPVLVIQNDIGNRFSPTAIVAAIAAQIQKAKLPTHVEIDAKRYGFERDSVILLEQIRTIDKQRLTDKITHLDDEMMDKVDEALQISLALIDF
B2: MazE (natural protein)
chain: MSESSARTEMKISLPENLVAELDGVAMREKRSRNELISQAVRAYVSERTTRHNRDLMRRGYMEMAKINLNISSEAHFAECEAETTVERLVSGG
B3: AimX (natural protein)
chain: MKRALGKAISYEEMAKGYEEMAAINSIIAQEDNHLENEAEMIKTRYKTLAS

Columns and labels:
Assay in all cases: BLI
YosL^SPβ [1] = molecular target: T1, YosL^SPβ
YosL^phi3T [2] = molecular target: T2, YosL^phi3T
YosL^SPβ [3] = molecular target: T1, YosL^SPβ
YosL^phi3T [4] = molecular target: T2, YosL^phi3T
MazF [5] = molecular target: B1
phi3T_93 [6] = molecular target: T3, phi3T_93
MazF [7] = molecular target: B1
phi3T_93 [8] = molecular target: T3, phi3T_93

| Binder | koff (YosL^SPβ [1]) [s⁻¹] | koff (YosL^phi3T [2]) [s⁻¹] | Kd (YosL^SPβ [3]) [nM] | Kd (YosL^phi3T [4]) [nM] | koff (MazF [5]) [s⁻¹] | koff (phi3T_93 [6]) [s⁻¹] | Kd (MazF [7]) [nM] | Kd (phi3T_93 [8]) [nM] |
| --- | --- | --- | --- | --- | --- | --- | --- | --- |
| B1 | 0.00085 | 0.00033 | 15 | 20.2 |  |  |  |  |
| B2 |  |  |  |  | 0.01 | 0.0013 | 404 | 27.3 |
| B3 |  |  |  |  | 0.0066 | 0.045 | 81.3 | 184 |
